In paper PMC6100724, “Proteome‐wide analysis of phospho‐regulated PDZ domain interactions” (Molecular Systems Biology, 2018):
Each block holds one binder with its values, some of them ahead of it. Square brackets hold non-standard residues; d marks the D form. Ends that are not written are not given here. * marks the point of attachment. FITC = O=C1OC2(c3ccc(O)cc3Oc3cc(O)ccc32)c2ccc(NC(=S)*)cc21; pS = N[C@@H](COP(=O)(O)O)C(=O)O

B3: Scribble PDZ1 (His-tagged, aa 719-829) (domain or fragment)
chain: not shown
notes: human Scribble, PDZ1, aa 719-829, in pETM-11; Used for MST and ITC; removal of the His tag is told only for the NMR samples; also called Scribble PDZ1 wild type; source: E. coli BL21 Gold (DE3), purified (Ni2+ Sepharose), dialysed

Assays:
Details in all cases: both partners purified
[1] = target: T1, FITC-RLTpSTRL (RPS6KA2 peptide, phosphorylated at p-3) (human); assay: MST; FITC-labeled peptide fixed at 25-50 nM, untagged SHANK1 PDZ in a dilution series; PBS, 10 mM MgCl2, 0.05% Tween-20; n = 3
T1 construct: C-terminal peptide of human RPS6KA2; source: synthetic peptide, bought: GeneCust
T1 peptide: {FITC}-RLT[pS]TRL

[2] = target: T2, FITC-RLTETRL (RPS6KA2 peptide, phosphomimetic at p-3) (human, S730E (stands in the printed letters)); assay: MST; FITC-labeled peptide fixed at 25-50 nM, protein (Scribble PDZ1 or DLG1 PDZ2) in a 1:1 dilution series; 50 mM Tris-HCl pH 7.4, 0.1% Tween-20; thermophoresis and T-Jump signal; n = 3
T2 construct: also called phosphomimetic RPS6KA2; source: synthetic peptide, bought: GeneCust
T2 peptide: {FITC}-RLTETRL

[3] = target: T3, FITC-KRpSFIESNV (TANC1 peptide, phosphorylated at p-6) (human); assay: as above
T3 construct: C-terminal peptide of human TANC1; also called TANC1 phosphopeptide; source: synthetic peptide, bought: GeneCust
T3 peptide: {FITC}-KR[pS]FIESNV

[4] = target: T4, FITC-KREFIESNV (TANC1 peptide, phosphomimetic at p-6) (human, Ser to Glu at p-6 (stands in the printed letters)); assay: as above
T4 construct: also called phosphomimetic TANC1; source: synthetic peptide, bought: GeneCust
T4 peptide: {FITC}-KREFIESNV

[5] = target: T1, FITC-RLTpSTRL (RPS6KA2 peptide, …); assay: as above
[6] = target: T5, FITC-HTNETpSL (MCC peptide, phosphorylated at p-1) (human); assay: as above
T5 construct: C-terminal peptide of human MCC; also called pMCC; source: synthetic peptide, bought: GeneCust
T5 peptide: {FITC}-HTNET[pS]L

[7] = target: B3; assay: ITC; iTC200, 25°C, 20 mM HEPES pH 7.4; protein 50-100 μM in the cell, peptide 0.64-3 mM in the syringe; single-site fit, stoichiometry fixed to 0.8-1.1; n = 3
[8] = target: T6, Scribble PDZ1 R762A (human, UniProt Q14160 719-829, R762A); assay: as above
T6 construct: human Scribble, PDZ1, aa 719-829, in pETM-11, point mutant; Used for ITC; also called mutational background; source: E. coli BL21 Gold (DE3), purified (Ni2+ Sepharose), dialysed
T6 sequence (Q14160 719-829 R762A): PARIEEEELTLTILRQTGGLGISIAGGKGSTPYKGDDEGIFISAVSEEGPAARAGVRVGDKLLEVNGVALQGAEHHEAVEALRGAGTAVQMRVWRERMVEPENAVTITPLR

[9] = target: T7, Scribble PDZ1 R762A/A743R (human, UniProt Q14160 719-829, R762A | A743R); assay: as above
T7 construct: human Scribble, PDZ1, aa 719-829, A743R introduced in the background of R762A; also called R762A/A743R mutant; source: E. coli BL21 Gold (DE3), purified (Ni2+ Sepharose), dialysed
T7 sequence (Q14160 719-829 A743R/R762A): as the sequence (Q14160 719-829 R762A) above, with A25R counted along it

fold lower affinity than for the unphosphorylated peptide [1]: 3.6 fold
B1: SHANK1 PDZ (aa 652-761, His-GST tag removed) (domain or fragment, human, UniProt Q9Y566 652-761, looked up)
chain: GPGSDYIIKEKTVLLQKKDSEGFGFVLRGAKAQTPIEEFTPTPAFPALQYLESVDEGGVAWRAGLRMGDFLIEVNGQNVVKVGHRQVVNMIRQGGNTLMVKVVMVTRHPD
notes: human Shank1, PDZ, aa 652-761, in pETM-33; also called untagged SHANK1 PDZ; source: E. coli BL21 Gold (DE3), purified (Ni2+ Sepharose), tag removed with HRV3C protease

fold higher affinity than for the unphosphorylated peptide [2]: 1.3 fold | fold lower affinity than for the unphosphorylated peptide [3]: 2.9 fold | fold lower affinity than for the unphosphorylated peptide [4]: 2.4 fold
B2: DLG1 PDZ2 (His-tagged, aa 311-407) (domain or fragment, human, UniProt Q12959 311-407, looked up)
chain: KPVSEKIMEIKLIKGPKGLGFSIAGGVGNQHIPGDNSIYVTKIIEGGAAHKDGKLQIGDKLLAVNNVCLEEVTHEEAVTALKNTSDFVYLKVAKPTS
notes: human DLG1, PDZ2, aa 311-407, in a modified pRSET vector; also called DLG PDZ2; source: E. coli BL21 Gold (DE3), purified (Ni2+ Sepharose), dialysed

Binder: B3
fold higher affinity than for the unphosphorylated peptide [5]: 5 fold | fold lower affinity than for the unphosphorylated peptide [3]: 2 fold | fold higher affinity than for the unphosphorylated peptide [6]: 3 fold

fold higher affinity than for the unphosphorylated peptide [7]: 5 fold | fold weaker affinity than the wild type [8]: 6 fold | binding result [9]: binds
B4: MKRLTpSTRL (RPS6KA2 peptide, phosphorylated at p-3, unlabelled) (peptide)
peptide: MKRLT[pS]TRL
notes: C-terminal peptide of human RPS6KA2; also called phospho-RPS6KA2; pRPS6KA2; source: synthetic peptide, bought: GeneCust
